From the nanobody polyreactivity screen of Harvey et al. (2022)

Assay: yeast display, Sf9 membrane polyspecificity reagent, FACS + sequencing; frameworks hold sequencing errors
Method in brief: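 Galactose-induced (36–48 hours) yeast carrying a synthetic nanobody display library were exposed to 10% biotinylated, detergent-solubilized Sf9 membrane reagent at 4 °C for 1 hour. FACS followed streptavidin microbead enrichment, using low and high (top ~1%) gates for expression (anti-HA) and reagent binding (streptavidin). Colony PCR, MiSeq 2 × 250 sequencing and CDR-length filtering followed. Labels for polyreactivity reflect the gate of origin.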

| Sequence | polyreactivity (PSR sort gate) |
| --- | --- |
| QVQLVESGGGLVQAGGSLRLSCAASGRIFYYYAMGWYRQAPGKERELVAAISSRGASTYYADSVKGRFTISRDNAKNTVYLQMNSLKPEDTAVYYCAASTPFRSTRYDYWGQGTQVTVSS | high polyreactivity |
| QEQLQESGGGLVQAGGSLRLSCAASGSISQAWYMGWYRQAPGKERELVAAINVGAITYYADSVKGRFSISRDNAKNTVYLPMNSLTPEDTAVYYCAVDQYSEAYYDYWGQGTQATVSS | high polyreactivity |
| QVQHVESGGGLVQAGGSLRLSCAASGRTFPLNAMGWYRQAPGKERELVYAITWSGGRTYYADSVKGRFTISRDYAKNTVYLQMNSLKPEDTAVYYCAAKRTTWKIQSGYDYWGQGTQVTVSS | low polyreactivity |
| QVQLVESGGGLVQAGGSLRLSCAASGRTFRTNAMGWYRQAPGKERELVAAITSDGTYYADSVKGRFTISRDNAKNTVYLQMNSLKPEDTAVYYCNVDDRETRDDYWGQGTQVTVSS | low polyreactivity |
| QVQLVESGGGIVQAGGSLRLSCAASGRIFAWNAMGWYRQAPGKERELVAYADSVKGRFTISRDNAKNTVYLQMHSLNPEDSAVYYCAKVVTPYVPGDSYWYDYWGQGTQVTVSS | low polyreactivity |
| QFQHVESGGGLVQAGGSLRLSCAASGNTFYVYAMGWYRQAPGKERELVAGITTSGGSTYYADSVKGRFTISRDNAKNTVYLQMNSLKTEDTAVYYCATDISTSYYYKYSSFYQYDSWGQGTQVTVSS | low polyreactivity |
| QVHLVESGGGLVQAGGSLRLSCAASGSIIGKYAMGWYRQAPGKERELVADITNSGGSTYYADSVKGRFTISRDNAKNTVYLQMNSLKPEDTAVYYCAADYLYPPYYEFYFWGQGTQVTVSS | low polyreactivity |
| QVQLVESGGGLVQAGGSLRLSCAASGSTFVGNAKGWYRQAPGKERELVAAITGGGGSTYYADSVKGRFTISRDNAKNTVYLQMNSLKPEDTAVYYCARDRTDYYVCYVRYYYWGQGTQVTVSS | low polyreactivity |
| QVQLVESGGGLVQAGGSLRLSCAASGSTFCRNAMGWYRQAPGKEREFVAVISISSGTTYADSVKGRFTISRDNAKNTVYLQMNSVKPVDTAVYYCAAAIGVYYIDYRYLGTVEYWGQGTQVNVSS | low polyreactivity |
| QVQLVESGGGLVQAGGSLRLSCAASGRIFDGNAMGWDRPAPGKERELVADISVTGGSTYYADSVKGRFTISRDNAKNTVYLQMNSLKPEDTAVYYCNAYPFSRSVQLRDYWGQGTQVTVSS | low polyreactivity |
| QVQLVEAGGGLVQAGGSLRLSCAASGRIFRTYAMGWYRQAPGKESELVAAINISGDRTYYADSVKGRFTISRDHAKNTVYLQMNSLKPEDTAVYYCAAAGYRYWGAIYYWGQGTQVTVSS | high polyreactivity |
| QVQLVESGGGLVQAGGSLRLSCAASGLTFGTNSMGWYREAPGKEMELVAAISTSSGSTYYADSVKGRFTISRDNAKNTVYLLMNRLKPEDTAVFYCAAVTVTKLSYYRYYYWGQCTQVTVSS | low polyreactivity |
| QVQLVESGGGLVQAGGSLRLSCAASGRTIYRYAMGWYRQAPGKERELVAAISRRGGSTYYADSVKGRFTISRDNAKNTVYLHMNSLKPEDSAVYYCNAPFGDVYRTDDYWGQGTQVTVSS | high polyreactivity |
| QVQLVESGGGLVQAGGSLRLSCAASGIIFDDYAMGWYRQATGKERELVAVISSSGGNTYYADSVKVRFTISRDNAKNSVYLQMNSLKPEDTAVYYCAATYYYKSIYWFEYWGQGTQVTVSS | low polyreactivity |
| QVQLVESGGGLVQAGGSLRLSCAASGSTIKPYTMGWYRPAPGKERELVAAITSGGRTYYADSVKGRFTISRDNAKNTVYLQMNSLKPEDTAVYYCNARRYLWLRRYDYWGQGTQVTVSS | high polyreactivity |
| QVQLVESGGGLVQAGGSLRLSCAASGRTFYIYAMGWYRQAPGKERELVAAISWSGGTTYYADSVKGRFTISRDHAKNTVYLQMNSLKPEDTAVYYCNVYPAYNYFDYDYWGQGTQVTVSS | high polyreactivity |
| QDQLVDSGGGLVQAGGSLSLSCAASGRTSGRYAMGWYRQAPGKERELVAGITSSGGSTYYADSVKGRFTISRDNAKNTVYLQMNSLKPEDTAVYYCAKVWGAKGKTYRMYSWGKGTQVTVSS | high polyreactivity |
| QVQLVESGGGLFQAGGSLRLSCAASGFTVRRYTMGWYRPATGKEREMVATISLSDGNTYYADSVKGRFTISRDNAKNTVYLQMNRLKAEDTAFYDCNAYSQSWNFYGDGDYWGQGTQVTVSS | low polyreactivity |
| QVQLVESGGGLVQAGGSLRLSCAASGRTFRRYTMGWYRPAPGKERELVAAITTSGGSTYYADSVKGRFTLSRDNAKNTVYLQMNSLKPEDTAVYYCAATRRYSGDYWGQGTQVTVSS | high polyreactivity |
| QVQLVESGGGLVQAGGSLRLSCAASGITFSYNAMGWSRQAPGKERELVAAISSNSDSTYYADSVKGRFTISRDNAKNTVYLQMNSLKPEDTAVYYCAADTPDAPDYSGFYYWGQGSQVTVSS | low polyreactivity |
| QVQLVESGGGLVQAGGSLRLSCAASGSTFGSNAMGWYRQAPGKEREFVAAITWSGGSTYYADSVKGRFTISRDNAKNTVYLQMNSLKPEDTAVYYCAAESDSYFREYDYWGQGTQVTVSS | low polyreactivity |
| QVQLVESGGGLVQAGGSLRLSCAASGLTFRKYAMGWYRQAPGKERELVAAITRGGSTNYADSVKGRFTISRDNAKNTVYLQMNSLKPEDTAVYYCAAQYTYRFPYPGYATTHDYWGQGTQVTVSS | high polyreactivity |

| Sequence | polyreactivity (PSR sort gate) |
| --- | --- |
| QVQLVESGGGIVQAGGSLRLSCAASGRIFRRYAMVWSRQAPGKQRELVAAISSGGGSTYYADSVKGRFTISRDNAKNTVYLQMNSLKPEDTAVFYCDAASSPRYDYWGQGTQVTVSS | high polyreactivity |
| QVQLVESAGGLVQAGGSLLLSCAASGSTFGTYAMGWYRQAPGKERELVAAISTGGSTYYADSVKGRFTISRDNAKNTVYLQMNSLKPEDTAVYYCAALAEYVRRASDYWGQGTQVTVSS | low polyreactivity |
| QVQLVESGGGLVQAGGSLRLSCAASGSTFAQNAMGWYRQAPGKEREYVAAITGTVGSTYYADSVKGRFTISRDNAKNTVYLQMNSLKPEDTAVYYCNTRGFNGRVYPYDYWGQGTQVTVSS | low polyreactivity |
| QVQLVESGGGLVQAGGSLRLSCAASGLIFARNAMGWYRQAPGKERELVAAITYSGSRTYYADSVKGRFTISRDNAKNTVYLQMNSLKPEDTAVYYCAARHRYSAVTEYNYWGQGTQVTVSS | high polyreactivity |
| QVHLVESGGGLVQAGGSLRLSCAASGSTFSSYAMGWYRQAPGKERELVAAINWSGTRTYYADSVKGRFTISRDNAKNTVYLQMNSLKPEDTAVYYCAAPGDGETADYDYWGQGTQVTVSS | low polyreactivity |
| QVHLVESGGGLVQAGGSLRLSCAASGFTFESYAMGWYRQAPGKERELVAAISDGGGDTYYADSVKGRFTISRDNAKNTVYLQMNSLKQEDTAVYYCAAEWDGNWYRGAGGYDYWGQGTQVTVSS | low polyreactivity |
| QVQLVESGGGLVQAGGSLRLSCAASGFIIDCYAMGRYRQAPGKERELVAVISQRGSNTYYADSVKGRFTISRDHAKNTVYLQMNSLKPEDTAVYYCAARYKQGDSTGGRMNYWGQGTQVTVSS | high polyreactivity |
| QVQLVESGGGLVQAGGSLRLSCAASGRTFIGYAMGWYRQAPGKERELVATISVSGGSTYYADSVKGRFTISRDNAKNTVYLQMNSLKPEVTAVYYCAKAYLRYYDGPYDYWGHGTQVTVSS | low polyreactivity |
| QVQLQESGGGLVQAGGSLRLSCAASGPISRRSTMGWNRQAPGKERELVTAITRGTNTNYADSVKGRFTISRDNAKNTEYLQMNSLKPVDTAVYYCAAYGVLKPSRGDAVFHRYWGQGTQVTVSS | low polyreactivity |
| QVQLVESGGGLVQAGGSLRLSCAAAGSTFSYYTMGWYRQAPGKERELVAAITRSGGRTYYADSVKGRFTISRDNAKYTVYLQMNSLKPEDTAVYYCAREYYPDWGQGTQVTVSS | high polyreactivity |
| QVQLVESGGGLVQAGGSLRISCAASGSIFPHYAMGWYRQSPAKERELVAAISYSGGRTYYADSVKGRFTISRDNAKNTFYLQMNSLKPEDTAVYYCAKTERVLYHGDYWGQGTQVTVSS | low polyreactivity |
| QVQLVESGGGLVQAGGSLRLSCAASGFTIRRNAMGWYRQAPGKERELVAAISDRGGSTYYADSVKGRFTISRDTAKNTVYFQMTSLKPEDTAVYYCAAEPYAGPELDYWGQGTQVTVSS | high polyreactivity |
| QVQLVESGGGLVQAGGSLRLSCAATGSTFGGNAMGWYRQAPGKERELVAAISSSGGSTYYADSVKGRFTISRDNAKNTVYLQRNRLKPEDTAVYYCAALYHWTYDYWGQGTQVTVSS | low polyreactivity |
| QVQLVESGGGLVQAGGSLRLSCAASGSTFVRNAMGWYRQAPGKERELVAAITSSGGSTYYADSVKGRFTISRDNAMKTVYLQMNSLKPEDTAVYYCNAELGSDTANYDYWGQGTQVTVSS | low polyreactivity |
| QVQLVESVGGLVQAGGSLRLSCAASGSIFYDNGMGWYRQAPGNERELVAAISRGGTTNYADSVKGRFTISRDKAKNTVYLQMNSLKPEDTAVYYCNAETRFTYWGSWYDYWGQGTQVTVSS | low polyreactivity |
| QVQLVESGGGLVQAGGSLRLSCAASGLIFYRYAMGWYRQAPRKERELVARISYRTTSTYYADSVKGRFTISRDNAKNNVYLQMNSLKPEDTAVYYCAASRFAYRVRYLFEYWGHGTQVTVSS | high polyreactivity |
| QVQLEESGGGVVQAGGSLRLSCAASGRIFDRYDMARYRQAPGKERELVASISSGGSTYYADSVKGRFTISRVTAKNPVYLQMNSLKPEDTAVYYCNAEARSRRYRYDYWGQGTQVTVSS | high polyreactivity |
| QVQLVESGGGLVQAGGSLRLSCAASGSTFDRYAMGWYRQAPGKERELVAAISWSAGRTYYADTVKARFTISRDYAKNTVYLQMNSLKPEDTAVYYCAADQIVSGTYDYYWGQGTQVTVSS | low polyreactivity |
| QVQLVESGGGLVQAGGSLRLSCAASGFIFTGNAMGWYRQAPGKERELVAAITGRGSTYYADSVKGRFTISRDNAKNTVYLQMNSLKPEDTAVYYCAAKRWWQYYWGQGTQVTVSS | high polyreactivity |
| QVQLVESGGGLVQAGGSLRLSCAASGLIFVSYAMGWYRQAPGKERELVAAISSGGSTYYADSVKGRFTISRDNAKNTVSLQMTSLKPEDTAVYYCNADGFYSWLYDYWGQGTQVTVSS | low polyreactivity |
| QVQLVESGGGLVQAGGSLRLSCAASGSIFQWYAMGWYRQAPGKERELVAAINWSSGSTYYADSVKGRFTISRDIAKNTVYLQMNSLKPEETAVYYCAARIGYGTSYLRRIYYWGQGTQVTVSS | high polyreactivity |
